B1: NEC49 (fully human-derived anti-Nectin-4 antibody) (antibody, V domains shown)
VH: EVQLLESGGGLVQPGGSLRLSCAASGFTFSSYAMSWVRQAPGKGLEWVSAIYSGGSTYYADSVKGRFTISRDNSKNTLYLQMNSLRAEDTAVYYCTRHGGDSGSWSYYYYGMDVWGQGTTVTVSS
VL: not shown
notes: also called antibody NEC49
B2: EV201 (positive control antibody; antibody of enfortumab vedotin) (antibody, human IgG1, kappa, V domains shown)
VH: EVQLVESGGGLVQPGGSLRLSCAASGFTFSSYNMNWVRQAPGKGLEWVSYISSSSSTIYYADSVKGRFTISRDNAKNSLSLQMNSLRDEDTAVYYCARAYYYGMDVWGQGTTVTVSS
VL: DIQMTQSPSSVSASVGDRVTITCRASQGISGWLAWYQQKPGKAPKFLIYAASTLQSGVPSRFSGSGSGTDFTLTISSLQPEDFATYYCQQANSFPPTFGGGTKVEIKR
notes: also called control antibody EV201; control molecule

Columns and labels:
[1] = target: T1, human Nectin-4 on Nectin4-CHOK1 cells (CHO-K1 cell strain highly expressing Nectin-4) (human, UniProt Q96NY8 32-510); assay: cell-based or functional assay
T1 sequence: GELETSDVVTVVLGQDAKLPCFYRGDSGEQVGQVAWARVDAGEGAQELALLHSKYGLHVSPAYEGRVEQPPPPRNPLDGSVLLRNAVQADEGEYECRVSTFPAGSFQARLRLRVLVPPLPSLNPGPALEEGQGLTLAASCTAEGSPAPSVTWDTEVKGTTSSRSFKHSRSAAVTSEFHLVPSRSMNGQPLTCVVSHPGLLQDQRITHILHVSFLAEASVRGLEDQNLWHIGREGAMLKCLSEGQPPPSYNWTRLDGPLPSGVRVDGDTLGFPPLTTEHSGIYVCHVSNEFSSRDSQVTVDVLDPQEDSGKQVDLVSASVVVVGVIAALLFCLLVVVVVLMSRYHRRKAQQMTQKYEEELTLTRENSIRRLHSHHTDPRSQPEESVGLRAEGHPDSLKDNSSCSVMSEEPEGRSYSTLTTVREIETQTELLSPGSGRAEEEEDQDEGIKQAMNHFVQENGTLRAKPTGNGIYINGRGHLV

[2] = target: T2, Nectin-4 expressed on T47D and MDA-MB-468 human breast cancer cells (human, UniProt Q96NY8 32-510); assay: flow cytometry on T47D cells
T2 construct: whole, on cells; Nectin-4 native to the cell lines; also called Nectin-4-expressing cells
T2 sequence (looked up): T1 sequence
Description: (§1) After centrifugation and removal of the supernatant, the test antibody that was diluted with the FACS buffer to different concentrations was added at 50 μL/well. The plate was incubated in the dark in a 4° C. refrigerator for 1 h. The plate was washed 3 times with FACS buffer by centrifugation at 500 g, and Alexa Fluor 488 Goat anti-Human IgG (H+L) (invitrogen, A-11013) was then added in a working concentration. The plate was incubated in the dark in a 4° C. refrigerator for 40 min. The plate was washed 3 times with FACS buffer by centrifugation at 500 g and tested on a BD FACSCantoII flow cytometer for geometric mean fluorescence intensity, and the EC₅₀ values for the binding of the antibodies to Nectin-4-expressing cells were calculated.

[3] = target: T3, human Nectin-4 His (Cat. #19771-H08H, Sino Biological) (human, UniProt Q96NY8 32-349); assay: SPR, Biacore T200; antibody captured on Protein A chip, human Nectin-4 His as analyte; 1:1 Langmuir model
T3 construct: Bought soluble antigen; the construct is probably only a part of it; also called human Nectin-4 His antigen; not shown: His tag
T3 sequence: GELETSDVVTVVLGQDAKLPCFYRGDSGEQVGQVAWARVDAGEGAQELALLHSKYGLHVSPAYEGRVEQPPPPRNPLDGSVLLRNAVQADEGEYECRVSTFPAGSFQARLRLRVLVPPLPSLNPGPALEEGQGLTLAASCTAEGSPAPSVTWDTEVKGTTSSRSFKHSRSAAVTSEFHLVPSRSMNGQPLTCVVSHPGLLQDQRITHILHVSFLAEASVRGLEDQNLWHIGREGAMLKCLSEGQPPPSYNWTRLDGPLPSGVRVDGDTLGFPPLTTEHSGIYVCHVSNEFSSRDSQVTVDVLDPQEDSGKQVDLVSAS
Description: The anti-Nectin-4 antibody was analyzed by Biacore T200 (GE) for characteristic affinity and binding kinetics. A Protein A biosensor chip (Cat. #29127556, GE) was used to affinity-capture IgG antibodies, and then the human Nectin-4 His (Cat. #19771-H08H, Sino Biological) antigen that was diluted with HBS-EP buffer (pH 7.4) (Cat. #BR-1001-88, GE) to a series of concentrations was allowed to flow over the surface of the chip. The antigen-antibody binding kinetics was tracked for 3 min and the dissociation kinetics was tracked for 10 min. Reaction signals were detected in real time using a Biacore T200 instrument to obtain binding and dissociation curves. After dissociation was complete in each cycle, the biosensor chip was washed with 10 mM Gly-HCl pH 1.5 (Cat. #BR-1003-54, GE) for regeneration. The data obtained were analyzed with BIAevaluation software of GE using a 1:1 (Langmuir) binding model.

[4] = target: T2, Nectin-4 expressed on T47D and …; assay: flow cytometry on MDA-MB-468 cells
Description: as §1

[5] = target: T1, human Nectin-4 on Nectin4-CHOK1 cells …; assay: flow cytometry on Nectin4-CHOK1 cells
Description: as §1

Binder	IC50 (nM) (DT3C antibody endocytosis assay, Nectin4-CHOK1 cells) [1]	EC50 [2] [pM]	Kd [3] [pM]	koff [3] [s⁻¹]	kon [3] [M⁻¹ s⁻¹]	EC50 [4] [pM]	EC50 [5] [pM]
B1	0.43	70	5150	0.00189	367000	60	780
B2	0.5	260	9330	0.00661	709000	230	940

From patent US20260199504A1 (JIANGSU HENGRUI PHARMACEUTICALS, published 2026)
